From the domain aggregation screens of Martell et al. (2025)

assay: soluble fraction after stress (log2 fold change); higher = more stays soluble; pooled small domains, quantitative proteomics; conditions: stress: 75 degC
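Further: 20 min heating vs room temperature control held 20 min.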

Sequence | soluble fraction (log2)
HMKRDYELPAFIETYLKKNHVAIDTKSAAMIAEHIGADLSRLISELDKVMISLPDDDRRVTPDVVEREI | -0.0791
HMKREETLKALATKNANYVARSGRRYSFEPMNPYERRIIHTAVQEIEGVTSRSIGSGMDRRVLIEPEGGV | -0.322
HMKRELFVEPGMRLEHTPSKTSGPVVSFIEGVIVVIKDQLGSEHRFDPVPGFFRHEGDLVALRSPLL | -0.996
HMKRIDTILETFAKVHKHIPSKLILLGDGPELLDMRKIARSLHIEDDVLFLGKQDQVSKFYQMADLVLLL | -0.314
HMKRIHLSDEEKTDLESLHYSSNDGKQRDRIKAVLLRSEGWTVPMISQALRIHETTVTRYLNDYREGKLKN | -0.724
HMKRITKKELKQAIVDVFADKPGQSFNYKQLATIIGIKDDPTRRMITDILYELVQEERIVELYRGKFKMEM | -2.58
HMKRLPFSFAKRFGVVVEDGEPPIVHHRDGASAETLLEVRRRLGQVFTLQRHDAEAFERLLTQAYQR | -1.15
HMKRPEPESPEAERRSQRAADWLVRRDRGLTAAEQDEFLQWLAIDPRHGEWFALHRSVVGEFSA | -0.081
HMKRQDFEFLVNLLRQNAGWDFDEEQYFVVDKKISNFIREKGYASVEDLIDELKVGAKPLISQVVESLAL | -0.576
HMKRTFGEISPLPSGRYRARYRGPDGERYPAPVTFLSRMDAETWLSAQARKVSSGDWTPPVGVVA | -0.34
HMKRWHVGDPIDALTAAGKVPSWSTIRQRFWKTIAALYPDIEQSERLQRGLAMLDEAGTSIELHHP | -1.03
HMKRYLFEEVLAFLKHNDGKSFNYKQLGAAMEIDNESDRFALLETLEELKHQGFVIETDIGKYAAKE | -0.868
HMKSDELTKRRRLQIIEAAERSFRKRGFHATTLREIAAEFGMSVGHIYNYFSGKDAILEALIHQKIDD | -1.01
HMKSKHENLIDGLLKMISSMKPHDRLTPERQLAEEWAVSRMTLRRALEVLQFQGKIYTVPSSGLFVAEPK | -2.89
HMKSKPRVPFGSLVEMGILKPGSILFDPKGKIKTKVMVDGSIKYKETEGSIHKVAAQIMGTESYNGWTYW | 0.488
HMKSLDDVISKFRPTGSENKIDFRKRVISEIHAQGFFKIKGSVNHVAKALGVTRYTVYNYLDKLND | -3.65
HMKSLLTHAEEFVRNNNGRWMLAETSSKESYSSKQNFYLRNNYSIISEIRDFYSVGDNLLVFGKFFT | 0.201
HMKSNESAELGERMLNKALLALHTDSSKISDTQWQKLLRDYGAKNKQEILTDIGLGKRLNVMVAHQLMAMG | -0.271
HMKSNIGENIRQLREKREMSVERVARMLEVKPATVIGWESGRELPEPAELGLLAKLFDVTVEELN | -0.121
HMKSNKEKIYDFIQMHDTAEKEGGVSTTYIAQALSLQRTNVSSLLNALVEEGRIHKSNGRPVLYSIAG | -0.242
HMKSPAQAAALKKLWAAIKQNEQGEVVEVLFHNRKLTDAGLVHLKGLANLQTLNLYDTKITGAGLVHL | -0.0641
HMKSVLDDVAGLGPVRKKALLKAMGGFTRLRAASLDDILAVRAVPEEVAREVFAVLAQYNSVRNNDISE | -1.08
HMKSVTAPLPGTVTQILVKVGDAVKAGDTVLMLEAMKMENSITAEAAGTVKAIRVEKGAQVQGGDVLIEM | 0.157
HMKTAAKVLGESGGKPVTVQSGRYGPYVQLGTIRATLPKDLDQEAVTLDKALELIDAKAERSGK | 0.00631
HMKTDFEIDITVKASSLRVVASPGGDELVGTVTRGDRVTQLATPKDGWILIKMTDGRLGYVPESLLLFP | -1.87
HMKTEIGQAMRKLRKAKKMTQDTLAEKLGVAPANISRYEKGQQGIEVDKLPTLADALGVSVPEFFAIASG | 0.0367
HMKTELAYDFHSRIRDARIREGLSQVDLAKRMNEKIAVIQKAENGIRPTDSLIAKFSKALSVELYVE | -2.12
HMKTGIIYGVNGPVIYLKGDTGFKISEMVYVGPEKLVGEVIGLKKHMTTVQVFEETTGLKPGETVIGTGDA | -0.378

Sequence | soluble fraction (log2)
HMKTGTVQDFIAKYGMSSKSPSSWFNSLTQIQKAEAKALKAQSGLTWNEWYEKNIYNGDGSNL | -0.0584
HMKTKHISIAEGMSLYTRDRSPFYWGYLNIEGVIHKKSLKTDVVDEAIKLLSIWKNELLNSITK | -1.19
HMKTKKYKGVYKDSKGKIYFQIELGVDPITGKRIQKKGRKNQQGLPFNSFKEAYEEILRLKHEFVNSTIN | -3.35
HMKTKTAPPDSIPPAWLKESATLRPDLNQAQIKASAEVFLDHHRAKGTTLADWRPAWRNWIRRERA | 0.0178
HMKTLDAFFDQARDAYKKLKKDGDIDNLKVLRNQLQTVRETQGDAVRKKSKEEYRRLVDIIDDIDGLLAAF | -0.123
HMKTLSKEDIGFLSDEAVGEMRKAVANGEMLELRALIDQVGEKNPIVAEKLLTLVKQYDYENLNRVLE | 0.102
HMKTPAPRETILSLFRQTPDGFVSGERISDELGVSRTAVWKHIRNLRQAGYQIEAIPSRGYQLQQS | -0.556
HMKTQFGTIVKQLRERKGMDQKQLGEIVGVSDKTVSSWEINRTEPKMGIVQQLADYFGVSTDYLIKG | 0.306
HMKTRQVTVRNGRIEIFDKRFSTERLVFTAANLPVLEREGEVFTAGIPDSRDFINLWARDGSFAGSVPRV | -1.96
HMKTTSYAKLLRFLRTERDLSQITVAKQLGLSRASYLALEHGSRELSLSEAVKVTTLYGIRIDDLIVNH | -3.35
HMKTTVEVSPIARPGAVASGSVKFGSGVTAEWMLDQYGRLGLDKPTGKPTEQDIKEFQIELQKAL | 0.0637
HMKVDLSEEEKTILELLKKESPQELETIKAASTLSNKKWDKAIKGLRKHNLAKVNKTDDGLFVELE | 0.234
HMKVDRLISIVLVLLDKNRISAQELADMFEVSLRTIYRDIDAIELAGIPIRSTSGVGGGFEIMPNY | -1.11
HMKVKGVYQLDNGYWGYRFTMLVNGKTVSQRRVKDESGNPFKTEKKAEKARLVAMAEEQTKANK | -2.22
HMKVMTNAELGRIIKEARIARRMTQSEVVGDFITRNMLSQIENGNAAPSMRTLQYLMDVLDIHINIE | -3.02
HMKVNIGDQVYNQMKDQIMSGVWVPGEKIPSENQLMEVFGVSRGTVRQAIQKLSAVGLLETRRGEGSYVGQ | -0.136
HMKVQLGMNTREVRGIMGKPFSEDTFVEGEKRVDVLHYKEAVRVKTQGFILTTSLRFENDSLTAI | -1.62
HMKVRVFIERSNDGYSAYMPDDNNLPFGLTGDGKTAQEAMQDFLLARDEMKEFFIEEGKEFPEVEFDFS | -0.828
HMKVSAEEQNILDALQAAGGYLPFHDKSNPEEIYEAFGISKKTFKMIIGSLYKQQKINLTQTGIQLII | 0.303
HMKVSDPEAIKLIEQAQVKVIPFLDISEAADIQIALEELKNSEGTGQTDSAKVRLRNLLSPFSYL | 0.577
HMKVSFEIEINGVTKSINSINEAKEAISELQDIMDNSTFGSEEFKNAATQIDKLQNKLVEALDK | 0.93
HMKVSVDLSMFEDDQTADRNAAVAWVVDELGAGGVDRTILMQLQSTGWSAEQSRAILDLASAGR | -0.311
HMKVTGSVQKKKGYYYIVVRLPTKNGTQYEQKQKWFNTKLKATPRNKTAAQVILAEKLTEYGGIV | -3.04
HMKVWYAGINAQRVGPMTLGAMEQQIRYGRVLFSTLIWKSPMPQWVPAGDVPELRRLLDEHMLNQMP | -0.841
HMKYFDRDLINYIQKTLAGKKIDFHEKIVPLIIELAGSDIRRVDEIIDMAEYSGKGMHVSEEMIRELAGDV | -0.715
HMKYKTKRDMILALMKKEILSGELKPRTRLLISEVASRYEVSEIPVREAFQVLIQEDLVRSTGAGFEVT | -2.36
HMKYPVYLQLADLIERKINKNEYPLGSKIPSERELIDAFGISRMTVRKAIEVLIEKGLLTRQHGKGTYVSQ | -2.26
